{"source": "patent US20250361274A1", "about": "“PEPTIDE AND PEPTIDE-CONTAINING AGENT” (PEPTIDREAM INC., priority 2022, published 2025)", "key": {"[1]": {"target": "T1, BMP4 (Homo sapiens, UniProt P12644)", "T1 sequence (P12644 293-408)": "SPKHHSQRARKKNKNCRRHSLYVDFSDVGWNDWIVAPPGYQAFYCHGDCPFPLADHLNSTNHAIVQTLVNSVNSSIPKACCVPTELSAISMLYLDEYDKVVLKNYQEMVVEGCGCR", "experiment": "BMP4 signal transduction inhibitory activity: SMAD1 phosphorylation by BMP4 stimulus, AlphaLISA SureFire, A549 cells", "assay_type": "cell-based"}, "[2]": {"target": "T2, BMP7 (Homo sapiens, UniProt P18075)", "T2 sequence (P18075 293-431)": "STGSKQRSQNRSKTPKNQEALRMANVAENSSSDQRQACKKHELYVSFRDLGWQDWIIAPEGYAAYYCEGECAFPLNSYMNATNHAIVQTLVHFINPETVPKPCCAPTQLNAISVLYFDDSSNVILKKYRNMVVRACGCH", "experiment": "BMP7 signal transduction inhibitory activity: SMAD1 phosphorylation by BMP7 stimulus, A549 cells", "assay_type": "cell-based", "in_short": "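Inhibition is read as reduced BMP7-driven SMAD1 phosphorylation in human A549 cells, with the BMP7 stimulus at 10 nM. Three-point peptide concentrations spanned 1–1,000 nM depending on the peptide series. Some peptides received eight-point, 1/3-ratio titrations from 100 nM or 1,000 nM, alongside a Noggin control.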"}, "[3]": {"target": "T3, BMP7 (UniProt P18075 293-431)", "T3 sequence (looked up)": "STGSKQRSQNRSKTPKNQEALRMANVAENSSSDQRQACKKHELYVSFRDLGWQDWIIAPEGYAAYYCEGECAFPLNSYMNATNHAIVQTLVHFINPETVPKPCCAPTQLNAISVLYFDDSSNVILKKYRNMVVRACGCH", "experiment": "cell-based or functional assay"}, "[4]": {"target": "T4, BMP4 (UniProt P12644 293-408)", "T4 sequence (looked up)": "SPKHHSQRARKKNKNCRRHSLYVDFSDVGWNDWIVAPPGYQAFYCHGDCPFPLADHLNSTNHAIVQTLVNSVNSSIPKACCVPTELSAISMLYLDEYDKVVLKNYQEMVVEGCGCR", "experiment": "cell-based or functional assay"}, "[5]": {"target": "T3, BMP7", "experiment": "cell-based or functional assay", "remark": "listed apart in the source"}, "[6]": {"target": "T5, BMP5 (UniProt P22003 317-454, limits assumed)", "T5 sequence (looked up)": "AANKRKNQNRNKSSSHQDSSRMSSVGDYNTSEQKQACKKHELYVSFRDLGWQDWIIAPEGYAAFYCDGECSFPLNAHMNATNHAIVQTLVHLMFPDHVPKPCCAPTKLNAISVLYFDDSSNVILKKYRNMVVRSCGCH", "experiment": "cell-based or functional assay"}, "[7]": {"target": "T6, BMP6 (UniProt P22004 382-513, limits assumed)", "T6 sequence (looked up)": "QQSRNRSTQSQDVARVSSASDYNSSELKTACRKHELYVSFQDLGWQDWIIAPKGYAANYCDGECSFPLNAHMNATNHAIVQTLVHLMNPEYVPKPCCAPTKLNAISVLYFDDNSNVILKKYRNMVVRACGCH", "experiment": "cell-based or functional assay"}}, "note": "Like-named read-outs stand apart in the source and are kept apart here. Numbered stars: 1 amine (or outer) side, 2 acyl side, 3 side chain; on linkers, the order of the positions; unused ones are H or OH. Bridge positions count the residues as written; N and C are the ends. Square brackets hold non-standard residues; d marks the D form. Peptide text beside a SMILES is read from it. KCOpipzaa = N6-(4-(carboxymethyl)piperazine-1-carbonyl)-L-lysine, O=C(NCCCC[C@H](N[*:1])C(=O)[*:2])N1CCN(CC(=O)[*:3])CC1; 3Pal(6-Ph) = N[C@@H](Cc1ccc(-c2ccccc2)nc1)C(=O)O; Phe(4-COOH) = N[C@@H](Cc1ccc(C(=O)O)cc1)C(=O)O; NMePhe(4-Me) = CN[C@@H](Cc1ccc(C)cc1)C(=O)O; Bip = N[C@@H](Cc1ccc(-c2ccccc2)cc1)C(=O)O; Phe(4-F) = N[C@@H](Cc1ccc(F)cc1)C(=O)O; Ala(4-THP) = N[C@@H](CC1CCOCC1)C(=O)O; cisHyp = O=C(O)[C@@H]1C[C@H](O)CN1; NMeF = CN[C@@H](Cc1ccccc1)C(=O)O; Aad = N[C@@H](CCCC(=O)O)C(=O)O; Cha = N[C@@H](CC1CCCCC1)C(=O)O; βAla = NCCC(=O)O"}
{"molecule": "Cc1ccc(C[C@H]2C(=O)N[C@@H](CC(C)C)C(=O)N3C[C@@H](O)C[C@H]3C(=O)N[C@H](C(=O)NCCC(=O)N[C@H](CCC(=O)O)C(=O)O)CSCC(=O)N[C@@H](Cc3ccc(F)cc3)C(=O)NCC(=O)N(C)[C@@H](Cc3ccccc3)C(=O)NCC(=O)N[C@@H](Cc3ccc(-c4ccccc4)nc3)C(=O)NCC(=O)N[C@@H](CC(=O)O)C(=O)N[C@@H](CCC(=O)O)C(=O)N[C@@H](CC3CCCCC3)C(=O)N[C@@H](CCCC(=O)O)C(=O)N2C)cc1", "note": "[compound 417] ({CH2CO}-[Phe(4-F)]G[NMeF]G[3Pal(6-Ph)]GDE[Cha][Aad][NMePhe(4-Me)]L[cisHyp]C[βAla][dE]-OH; thioether N-14)", "values": [{"measurement": "aLISA BMP4 (0.2 nM) % inh", "setting": "[1]; BMP4 0.2 nM stimulus, peptide conc. in assay 0.2, 2, 20 nM", "value": "ND (the inhibitory activity was less than 30% at the maximum concentration evaluated)"}, {"measurement": "aLISA BMP7 (10 nM) % inh", "setting": "[2]; BMP7 10 nM stimulus, peptide conc. in assay 1, 10, 100 nM", "value": "C (showed less than 30% of inhibitory activity in a zone to which the peptide was added in an amount of 1 nM and showed 30% or more of inhibitory activity in 10 nM-addition zone)"}]}
{"molecule": "{CH2CO}-ERV[Phe(4-COOH)][Ala(4-THP)][KCOpipzaa]R[Bip]PYP[Bip]Y[Phe(4-COOH)][Phe(4-COOH)]SC[βAla][dE]-OH (thioether N-17 (inferred))", "note": "[BMP4 signal transduction inhibition peptide No. 181]", "values": [{"measurement": "IC50 (nM), SMAD1 phosphorylation in A549 cells", "setting": "[3]", "value": 1.6, "unit": "nM"}, {"measurement": "IC50 (nM), SMAD1 phosphorylation in A549 cells", "setting": "[4]", "value": 0.052, "unit": "nM"}]}
{"molecule": "{CH2CO}-ERVYVDR[3Pal(6-Ph)]SYV[Bip]Y[Phe(4-COOH)][Phe(4-COOH)]SCG-NH2 (thioether N-17 (inferred))", "note": "[BMP4 signal transduction inhibition peptide No. 87 (SEQ ID NO: 87)]", "values": [{"measurement": "IC50 (nM), SMAD1 phosphorylation in A549 cells", "setting": "[4]", "value": 0.08, "unit": "nM"}]}
{"molecule": "Noggin: recombinant Human Noggin Protein (R&D), positive control; secreted protein that has BMP inhibitory activity (protein) QHYLHIRPAPSDNLPLVDLIEHPDPIFDPKEKDLNETLLRSLLGGHYDPGFMATSPPEDRPGGGGGAAGGAEDLAELDQLLRQRPSGAMPSEIKGLEFSEGLAQGKKQRLSKKLRRKLQMWLWSQTFCPVLYAWNDLGSRFWPRYVKVGSCFSKRSCSVPEGMVCKPSKSVHLTVLRWRCQRRGGQRCGWIPIQYPIISECKCSC", "values": [{"measurement": "IC50", "setting": "[1]; Table 2-2, 277 from 20 nM (1/3), 417 from 300 nM (1/4), ND = IC50 was not calculated", "value": 0.13, "unit": "nM"}, {"measurement": "IC50", "setting": "[1]; Table 2, eight concentrations, ratio 1/3 from 2 nM, A549 cells", "value": 0.08, "unit": "nM"}, {"measurement": "IC50", "setting": "[2]; Table 2-2, 277 from 1,000 nM (1/3), 417 from 300 nM (1/4)", "value": 5.74, "unit": "nM"}, {"measurement": "IC50", "setting": "[2]; Table 2, eight concentrations, ratio 1/3 from 100 nM, ND = IC50 was not calculated in the evaluation systems", "value": 2.7, "unit": "nM"}]}
{"molecule": "{CH2CO}-[Phe(4-F)]G[NMeF]G[3Pal(6-Ph)]GDE[Cha][Aad][NMePhe(4-Me)]L[cisHyp]C[βAla][dE]-OH (thioether N-14 (inferred))", "note": "[BMP7 signal transduction inhibition peptide SEQ ID NO: 417 (Example 6)]", "values": [{"measurement": "IC50 (nM), SMAD1 phosphorylation in A549 cells", "setting": "[5]", "value": 15.6, "unit": "nM"}, {"measurement": "IC50, SMAD1 phosphorylation, BMP5 2 nM", "setting": "[6]", "value": 19.3, "unit": "nM"}, {"measurement": "IC50, SMAD1 phosphorylation, BMP6 3 nM", "setting": "[7]", "value": 28.7, "unit": "nM"}]}
